Measured values taken from the supplement of paper PMC9170038.

Tested on: MS2 coat protein
Assay: apparent KD of MS2 coat protein; designed switch direction (-1 OFF switch, 1 ON switch): 1; higher = weaker reporter binding
Procedure, shortened: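 Normalised cluster fluorescence was curve-fitted, and each design's median over clusters is its apparent KD. Before this, SNAP-549-labelled MS2 coat protein was titrated from 0.7 or 1.5 nM, doubling to 3 µM, over RNA switches transcribed on Illumina chips by stalled E. coli RNA polymerase. Titrations had no input, 200 uM small-molecule ligand, or an oligonucleotide input, and steps lasted 0.8–1.5 h (lowest) to 10–20 min (highest).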

[1] = input ligand: microRNA oligo, concentration not stated
[2] = Eterna round: R95, input ligand: FMN 200 uM
[3] = Eterna round: R95, input ligand: microRNA oligo, concentration not stated
[4] = Eterna round: R95, input ligand: none

## GCUCGUGGUAUUGUCUACAUGAGGAUCACCCAUGUAGGUGCGGAGGAUAUCUACGUGUCUCAUGUAGAGAAGGCCGUCACGAGC [SameState NG3 #98] (Eterna round: R96, puzzle: Same State NG 3)
Input ligand: FMN 200 uM
  apparent KD of MS2 coat protein: 20.3 nM
[1]
  apparent KD of MS2 coat protein: 36.2 nM
Input ligand: none
  apparent KD of MS2 coat protein: 89.4 nM

## AAGGAAUGAGCGUAGGAUAUAGGAGAAGUGACAUGAGGAUCACCCAUGUAAAAGGAGGGAUGAGACUAGAAGGACGAGGUAGGAG [JR_SS2_Sub058] (puzzle: Same State 2)
[2]
  apparent KD of MS2 coat protein: 57.9 nM
[3]
  apparent KD of MS2 coat protein: 53.3 nM
[4]
  apparent KD of MS2 coat protein: 81.8 nM

## CUGGAAAACACAGGAUAUACCCGUGAAUCACGGGUAGAAGGGUGAAACAUGAGGAUCACCCAUGUUACCUCCCAAGGGAGGAUU [Zaleisge] (Eterna round: R96, puzzle: Same State NG 1)
Input ligand: FMN 200 uM
  apparent KD of MS2 coat protein: 432 nM
[1]
  apparent KD of MS2 coat protein: 518 nM
Input ligand: none
  apparent KD of MS2 coat protein: 946 nM

## AGAAAGAAAACGCAGGAUAUGGAGCAUGAGACAUGAGGAUCACCCAUGUCAAAAGAAAAGAAGAACCAGAAGGGCGGGAAAGAAA [Default title] (puzzle: Same State 2)
[2]
  apparent KD of MS2 coat protein: 18.5 nM
[3]
  apparent KD of MS2 coat protein: 11.7 nM
[4]
  apparent KD of MS2 coat protein: 15.6 nM

## AUAAGUUCGAUGCUCGUCUCUCCGUACAAACAUGAGGAUCACCCAUGUGAUCGGGCAGUAGCCCGAUCAGUAUGGCC [Soriin] (puzzle: Sensor for hsa-mir-208a)
[2]
  apparent KD of MS2 coat protein: 39.3 nM
[3]
  apparent KD of MS2 coat protein: 20.5 nM
[4]
  apparent KD of MS2 coat protein: 47.8 nM

## UCUCGGGUCGUAGGAUAUGUAGGAUAUGUACAUGAGGAUCACCCAUGUCUACCAGAGACAGAAGGACAGAAGGACGAGCCGAUC [pwkr ssNG2 2FMN 1F5s.6] (Eterna round: R96, puzzle: Same State NG 2)
Input ligand: FMN 200 uM
  apparent KD of MS2 coat protein: 20.9 nM
[1]
  apparent KD of MS2 coat protein: 25.8 nM
Input ligand: none
  apparent KD of MS2 coat protein: 43.7 nM

## AGCUUACAUGAGGAUCACCCAUGUAGGAAGUACAUAGGAUAUCACCAAAUGGUCGACAUGUGAGAAGGGUGGAAGU [Usarle] (puzzle: Same State 1)
[2]
  apparent KD of MS2 coat protein: 16.2 nM
[3]
  apparent KD of MS2 coat protein: 19.4 nM
[4]
  apparent KD of MS2 coat protein: 13.5 nM

## GGAGAACAUGAGGAUCACCCAUGUAAGAGAAGUGUAGGAUAUGUGAGGAGCAGAGGAGGAACAGAAGGACAUGGAG [JR_SS!_Sub071] (puzzle: Same State 1)
[2]
  apparent KD of MS2 coat protein: 29.8 nM
[3]
  apparent KD of MS2 coat protein: 41 nM
[4]
  apparent KD of MS2 coat protein: 58.3 nM

## UAGAGAGGAAGCGAGGAUAUCGUGUGAGGUACAUGAGGAUCACCCAUGUUUGAUGUUGAGAGAGGCGAGAAGGCGCAGGAGAAAA [JR_SS2_Sub086] (puzzle: Same State 2)
[2]
  apparent KD of MS2 coat protein: 30.8 nM
[3]
  apparent KD of MS2 coat protein: 24.9 nM
[4]
  apparent KD of MS2 coat protein: 38.7 nM

## UAAGUAUGUUGAGGAUAUUAUGUUUGGUGAGAUGACAUGAGGAUCACCCAUGUGUUAUCAGUUCUUAAGAAGGCAACAUACUUA [JR_SSNG2_Sub092] (Eterna round: R96, puzzle: Same State NG 2)
[1]
  apparent KD of MS2 coat protein: 20 nM

## GAGAGACGAUUAGGAUAUACAGUGAUAAUGAUAGUAGAAGGAAUUGACAUGAGGAUCACCCAUGUAGGACUAAUCCAGAGAGAG [Parity 27 - Jieux - Same State NG 1] (Eterna round: R96, puzzle: Same State NG 1)
Input ligand: FMN 200 uM
  apparent KD of MS2 coat protein: 46 nM
[1]
  apparent KD of MS2 coat protein: 36.4 nM
Input ligand: none
  apparent KD of MS2 coat protein: 52.2 nM

## ACAUGAGAGUUAGGAUAUCUUGUACCUACAUGUGACAUGAGGAUCACCCAUGUGGUAAGUAUGAGGGAGAAGGAACAGAUAUGU [Equivalence 43 - Jieux - Same State NG 2] (Eterna round: R96, puzzle: Same State NG 2)
[1]
  apparent KD of MS2 coat protein: 27.3 nM

## AGCCGAAGCGCAGGAUAUACAUGGAUACAUGAGGAUCACCCAUGUAGCAACACGUGGUAGUGAUUGUAGAAGGGUGCUCGGCGC [Omei SS(NG)2 Cv17] (Eterna round: R96, puzzle: Same State NG 2)
Input ligand: FMN 200 uM
  apparent KD of MS2 coat protein: 27.4 nM
[1]
  apparent KD of MS2 coat protein: 35.5 nM
Input ligand: none
  apparent KD of MS2 coat protein: 54.6 nM

## GCCGCGUUUCGCGCCUACAUGAGGAUCACCCAUGUAUGUAGGCAGGAUAUCGUUUGCUUUGCAAACGAGAAGGGCUGUUGUGGC [salish99_SSNG3_R04_009] (Eterna round: R96, puzzle: Same State NG 3)
Input ligand: FMN 200 uM
  apparent KD of MS2 coat protein: 79.5 nM
[1]
  apparent KD of MS2 coat protein: 217 nM
Input ligand: none
  apparent KD of MS2 coat protein: 227 nM

## GGAGCCAAGGCAGGAUAUUCAUAUUAAUAACAUGAGGAUCACCCAUGUAAGGCCAGAAGGCCUUGGGAGAAGGGCCAUGGCUCG [Xeonanis - 13 mod2] (Eterna round: R96, puzzle: Same State NG 2)
Input ligand: FMN 200 uM
  apparent KD of MS2 coat protein: 21.4 nM
[1]
  apparent KD of MS2 coat protein: 70.4 nM
Input ligand: none
  apparent KD of MS2 coat protein: 106 nM

## UCCUUGUGGGUAGGAUAUUUAGGAUAUGCGGAAGACUAAGUCUGUAGGUCACCUAACGCAGAAGGAGAGAAGGACCCUUCAGCA [pwkr ssNG2 2FMN + F9.32] (Eterna round: R96, puzzle: Same State NG 2)
Input ligand: FMN 200 uM
  apparent KD of MS2 coat protein: 284 nM
[1]
  apparent KD of MS2 coat protein: 87.9 nM
Input ligand: none
  apparent KD of MS2 coat protein: 309 nM

## GCUACCAAUGAAGCCAACAUGAGGAUCACCCAUGUAUGUUGGUAGGAUAUCGUUUGCUUUGCAAACGAGAAGGGCUAAGGUAGC [JL SSNG3 1.26] (Eterna round: R96, puzzle: Same State NG 3)
Input ligand: FMN 200 uM
  apparent KD of MS2 coat protein: 42.2 nM
[1]
  apparent KD of MS2 coat protein: 39.2 nM
Input ligand: none
  apparent KD of MS2 coat protein: 42.6 nM

## UUGUUUAGUAAUUAACAUGAGGAUCACCCAUGUCUUGGCUCAGAGGAUAUGCAUGUUUGAUUGUAGCAGAAGGCUGAUUGUUGU [JR_SSNG3_Sub030] (Eterna round: R96, puzzle: Same State NG 3)
Input ligand: FMN 200 uM
  apparent KD of MS2 coat protein: 65.1 nM
[1]
  apparent KD of MS2 coat protein: 148 nM
Input ligand: none
  apparent KD of MS2 coat protein: 107 nM

## UGCAGCUACGUAGGAUAUCCGAAAGGAAGUGUAGGAGAAGGACGAGAGCCGCCUUACGUACAUGAGGAUCACCCAUGUAGUAGG [PowerStrip SSNG 1.22] (Eterna round: R96, puzzle: Same State NG 1)
Input ligand: FMN 200 uM
  apparent KD of MS2 coat protein: 13.7 nM
[1]
  apparent KD of MS2 coat protein: 21.8 nM
Input ligand: none
  apparent KD of MS2 coat protein: 25.9 nM

## GCGAGCGUACUUGCUACAUGAGGAUCACCCAUGUUUCAUGGACAGGAUAUGGUACCGUUUCGGUACCAGAAGGGUUCACAUGUA [JL SSNG3 3.80] (Eterna round: R96, puzzle: Same State NG 3)
Input ligand: FMN 200 uM
  apparent KD of MS2 coat protein: 155 nM
[1]
  apparent KD of MS2 coat protein: 98.8 nM
Input ligand: none
  apparent KD of MS2 coat protein: 315 nM

## AUACUCAUGUAAGGAUAUGCAGCCGAAACGGCUGCAGAAGGUACUAUAAUACAUGAGGAUCACCCAUGUCAAAAUAAAAUAGUU [Mat - Same State NG 1 - JL mod - D100] (Eterna round: R96, puzzle: Same State NG 1)
Input ligand: FMN 200 uM
  apparent KD of MS2 coat protein: 20.6 nM
[1]
  apparent KD of MS2 coat protein: 25.4 nM
Input ligand: none
  apparent KD of MS2 coat protein: 25 nM

## UUAAUGAUGAUAGGAUAUACAUGAGGAAUUCUCGUAGAAGGAUCAUGACAUGAGGAUCACCCAUGUAUCGCUCAGAAGAGCGUA [Mat - Same State NG 1 - JL mod - D32] (Eterna round: R96, puzzle: Same State NG 1)
Input ligand: FMN 200 uM
  apparent KD of MS2 coat protein: 1340 nM
[1]
  apparent KD of MS2 coat protein: 368 nM
Input ligand: none
  apparent KD of MS2 coat protein: 528 nM

## UAUGAACAUGAGGAUCACCCAUGUGGAAAGGACACAGGAUAUCACCUCGGACGUGCGAUGUGAGAAGGGUGAUGGU [Anrelari] (puzzle: Same State 1)
[2]
  apparent KD of MS2 coat protein: 260 nM
[3]
  apparent KD of MS2 coat protein: 103 nM
[4]
  apparent KD of MS2 coat protein: 125 nM

## UCAAUCAUGUAAGGAUAUGCAGCCGUUUCGGCUGCAGAAGGUACUAUAAUUACAUGAGGAUCACCCAUGUUAUAAAAUUUAUAU [JL SSNG1 1.26] (Eterna round: R96, puzzle: Same State NG 1)
Input ligand: FMN 200 uM
  apparent KD of MS2 coat protein: 33.6 nM
[1]
  apparent KD of MS2 coat protein: 101 nM
Input ligand: none
  apparent KD of MS2 coat protein: 217 nM

## UACAAUCUAUCUGAGGAUAUCAUGAUUAUAACAUGAGGAUCACCCAUGUGCAGGAAAACUGCAUAUGAGAAGGCAGAUAGAUUGU [salish99_ss2_r3_069] (Eterna round: R96, puzzle: Same State 2)
Input ligand: FMN 200 uM
  apparent KD of MS2 coat protein: 228 nM
[1]
  apparent KD of MS2 coat protein: 116 nM
Input ligand: none
  apparent KD of MS2 coat protein: 232 nM

## AUUAUAUAUGCAGGAUAUGAUUAACAUGAGGAUCACCCAUGUGGUGUUGUGAGUAAGGAGAGUGAUCAGAAGGGCAUUUUUUUU [JMF's solution 63] (Eterna round: R96, puzzle: Same State NG 2)
Input ligand: FMN 200 uM
  apparent KD of MS2 coat protein: 852 nM
[1]
  apparent KD of MS2 coat protein: 163 nM
Input ligand: none
  apparent KD of MS2 coat protein: 353 nM

## GUAAUAAAGGAAGGAUAUGGGUAAACGGGAAUCCCAGAAGGUCCACAUGAGGAUCACCCAUGUGGUCCCGAAACCAAGGGACCG [Cetibiza] (Eterna round: R96, puzzle: Same State NG 1)
Input ligand: FMN 200 uM
  apparent KD of MS2 coat protein: 53.1 nM
[1]
  apparent KD of MS2 coat protein: 19.3 nM
Input ligand: none
  apparent KD of MS2 coat protein: 48.7 nM

## AAACCACAUGAGGAUCACCCAUGUCAAGAGAGACUAGGAUAUCUGAAUUAAUUAAAUUAAGGAGAAGGAGUGAAAA [71%, Same state of confusion2, 3] (Eterna round: R96, puzzle: Same State 1)
Input ligand: FMN 200 uM
  apparent KD of MS2 coat protein: 57.4 nM
[1]
  apparent KD of MS2 coat protein: 100 nM
Input ligand: none
  apparent KD of MS2 coat protein: 131 nM

## GAGUGGUGAAAAGGAUAUGCAUUGUUAUUCACUGUAGAAGGUUUUAACAUGAGGAUCACCCAUGUAGGACUAUUCCUGUGUUUU [Parity 60 - Jieux - Same State NG 1] (Eterna round: R96, puzzle: Same State NG 1)
Input ligand: FMN 200 uM
  apparent KD of MS2 coat protein: 17.6 nM
[1]
  apparent KD of MS2 coat protein: 14.8 nM
Input ligand: none
  apparent KD of MS2 coat protein: 23.2 nM

## GAAGAACAUGAGGAUCACCCAUGUAAGCGGAAGCUAGGAUAUGCGGGAAAGAAGAGAGAAGCAGAAGGAGUAGGAA [JR_SS1_Sub029] (puzzle: Same State 1)
[2]
  apparent KD of MS2 coat protein: 29.6 nM
[3]
  apparent KD of MS2 coat protein: 34.4 nM
[4]
  apparent KD of MS2 coat protein: 48.8 nM

## AAUAAACAUGAGGAUCACCCAUGUGCAACGCGUCAAGGAUAUGCAUCAAACACGCCUUGAGCAGAAGGUGACCGGA [Ladiis] (puzzle: Same State 1)
[2]
  apparent KD of MS2 coat protein: 245 nM
[3]
  apparent KD of MS2 coat protein: 41.7 nM
[4]
  apparent KD of MS2 coat protein: 16.7 nM
